From US20250218531A1 (ABSCI, published 2025)
Changes are numbered by the printed parent chain. “And” between values parts separate entries of the source, which are not always exact repeats. Equal values may be shown once.

B1: Trastuzumab HCDR3 variant ARGGYYGYWYYFDY (Fab, V domains shown)
VH: EVQLVESGGGLVQPGGSLRLSCAASGFNIKDTYIHWVRQAPGKGLEWVARIYPTNGYTRYADSVKGRFTISADTSKNTAYLQMNSLRAEDTAVYYCARGGYYGYWYYFDYWGQGTLVTVSS
VL: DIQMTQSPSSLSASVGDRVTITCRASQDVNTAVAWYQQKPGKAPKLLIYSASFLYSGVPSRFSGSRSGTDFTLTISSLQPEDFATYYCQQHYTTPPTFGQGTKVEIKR
B2: Trastuzumab HCDR3 variant ARSHYGYYDYYTDF (Fab, V domains shown)
VH: B1 VH with G99S, G100H, Y102G, G103Y, W105D, F108T, Y110F
VL: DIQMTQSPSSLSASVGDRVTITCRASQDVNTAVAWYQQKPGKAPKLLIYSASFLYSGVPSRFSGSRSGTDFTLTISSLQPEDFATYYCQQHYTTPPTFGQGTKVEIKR
B3: Trastuzumab HCDR3 variant ARLAFDSVSFYSDY (Fab, V domains shown)
VH: B1 VH with G99L, G100A, Y101F, Y102D, G103S, Y104V, W105S, Y106F, F108S
VL: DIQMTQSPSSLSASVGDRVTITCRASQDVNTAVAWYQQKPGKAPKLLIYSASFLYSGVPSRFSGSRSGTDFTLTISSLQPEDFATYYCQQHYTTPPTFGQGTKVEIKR
B4: Trastuzumab HCDR3 variant ARYRGGYGGYVFDP (Fab, V domains shown)
VH: B1 VH with G99Y, G100R, Y101G, Y102G, G103Y, Y104G, W105G, Y107V, Y110P
VL: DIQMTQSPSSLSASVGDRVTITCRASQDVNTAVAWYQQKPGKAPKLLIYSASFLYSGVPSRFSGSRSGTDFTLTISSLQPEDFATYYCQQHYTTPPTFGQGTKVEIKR
B5: Trastuzumab HCDR3 variant ARDGHYFTYDY (Fab, V domains shown)
VH: EVQLVESGGGLVQPGGSLRLSCAASGFNIKDTYIHWVRQAPGKGLEWVARIYPTNGYTRYADSVKGRFTISADTSKNTAYLQMNSLRAEDTAVYYCARDGHYFTYDYWGQGTLVTVSS
VL: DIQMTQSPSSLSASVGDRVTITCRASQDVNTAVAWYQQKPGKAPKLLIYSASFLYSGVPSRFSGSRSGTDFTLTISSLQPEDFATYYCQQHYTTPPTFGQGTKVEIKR
B6: Trastuzumab HCDR3 variant ARFDLVGAFDY (Fab, V domains shown)
VH: B5 VH with D99F, G100D, H101L, Y102V, F103G, T104A, Y105F
VL: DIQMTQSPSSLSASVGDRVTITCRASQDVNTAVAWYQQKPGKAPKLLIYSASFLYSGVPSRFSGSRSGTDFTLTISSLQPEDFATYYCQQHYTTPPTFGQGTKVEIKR
B7: Trastuzumab HCDR3 variant AFPWAGHYMER (Fab, V domains shown)
VH: B5 VH with R98F, D99P, G100W, H101A, Y102G, F103H, T104Y, Y105M, D106E, Y107R
VL: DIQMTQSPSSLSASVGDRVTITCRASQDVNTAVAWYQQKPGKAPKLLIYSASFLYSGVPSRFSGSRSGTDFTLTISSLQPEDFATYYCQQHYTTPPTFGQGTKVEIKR
B8: Trastuzumab HCDR3 variant ATGYSYLRFYD (Fab, V domains shown)
VH: B5 VH with R98T, D99G, G100Y, H101S, F103L, T104R, Y105F, D106Y, Y107D
VL: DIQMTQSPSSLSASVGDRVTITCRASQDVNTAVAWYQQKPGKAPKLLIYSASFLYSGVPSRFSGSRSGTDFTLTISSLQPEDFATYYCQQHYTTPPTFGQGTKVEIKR
B9: Trastuzumab HCDR3 variant ASYAGYSPFDY (Fab, V domains shown)
VH: B5 VH with R98S, D99Y, G100A, H101G, F103S, T104P, Y105F
VL: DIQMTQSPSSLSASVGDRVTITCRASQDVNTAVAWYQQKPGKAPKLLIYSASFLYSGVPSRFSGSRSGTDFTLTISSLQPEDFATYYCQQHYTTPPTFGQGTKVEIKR
B10: Trastuzumab HCDR3 variant AKYVLVGSYGV (Fab, V domains shown)
VH: B5 VH with R98K, D99Y, G100V, H101L, Y102V, F103G, T104S, D106G, Y107V
VL: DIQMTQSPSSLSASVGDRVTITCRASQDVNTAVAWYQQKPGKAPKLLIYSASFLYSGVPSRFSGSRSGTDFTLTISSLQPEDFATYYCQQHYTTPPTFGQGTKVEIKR
B11: Trastuzumab HCDR3 variant AINLRGYWMDN (Fab, V domains shown)
VH: B5 VH with R98I, D99N, G100L, H101R, Y102G, F103Y, T104W, Y105M, Y107N
VL: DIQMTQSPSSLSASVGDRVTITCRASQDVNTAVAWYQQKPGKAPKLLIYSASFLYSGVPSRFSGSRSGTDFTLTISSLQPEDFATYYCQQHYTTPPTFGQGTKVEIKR
B12: Trastuzumab HCDR3 variant ATGYSYLRYYD (Fab, V domains shown)
VH: B5 VH with R98T, D99G, G100Y, H101S, F103L, T104R, D106Y, Y107D
VL: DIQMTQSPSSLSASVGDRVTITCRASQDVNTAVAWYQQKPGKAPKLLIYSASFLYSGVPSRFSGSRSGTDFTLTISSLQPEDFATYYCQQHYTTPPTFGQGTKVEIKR
B13: Trastuzumab HCDR3 variant AAWYSTYYFDY (Fab, V domains shown)
VH: B5 VH with R98A, D99W, G100Y, H101S, Y102T, F103Y, T104Y, Y105F
VL: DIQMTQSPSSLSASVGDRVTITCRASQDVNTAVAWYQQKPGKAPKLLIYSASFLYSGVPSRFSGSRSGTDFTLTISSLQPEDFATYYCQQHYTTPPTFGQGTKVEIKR
B14: Trastuzumab HCDR3 variant AKYVASGYSLA (Fab, V domains shown)
VH: B5 VH with R98K, D99Y, G100V, H101A, Y102S, F103G, T104Y, Y105S, D106L, Y107A
VL: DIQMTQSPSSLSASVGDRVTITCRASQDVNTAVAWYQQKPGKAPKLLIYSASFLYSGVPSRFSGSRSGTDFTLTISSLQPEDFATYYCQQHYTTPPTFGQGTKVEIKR
B15: Trastuzumab HCDR3 variant AADGYRGTYSF (Fab, V domains shown)
VH: B5 VH with R98A, H101Y, Y102R, F103G, D106S, Y107F
VL: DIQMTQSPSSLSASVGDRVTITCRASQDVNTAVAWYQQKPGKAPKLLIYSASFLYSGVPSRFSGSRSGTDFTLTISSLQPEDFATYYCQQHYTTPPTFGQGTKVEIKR
B16: Trastuzumab HCDR3 variant ARYSYYRYYFE (Fab, V domains shown)
VH: B5 VH with D99Y, G100S, H101Y, F103R, T104Y, D106F, Y107E
VL: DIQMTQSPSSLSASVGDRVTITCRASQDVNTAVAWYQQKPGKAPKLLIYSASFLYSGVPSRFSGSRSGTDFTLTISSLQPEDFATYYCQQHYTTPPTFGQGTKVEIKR
B17: Trastuzumab HCDR3 variant VRGYGYNFYYHGFSY (Fab, V domains shown)
VH: EVQLVESGGGLVQPGGSLRLSCAASGFNIKDTYIHWVRQAPGKGLEWVARIYPTNGYTRYADSVKGRFTISADTSKNTAYLQMNSLRAEDTAVYYCVRGYGYNFYYHGFSYWGQGTLVTVSS
VL: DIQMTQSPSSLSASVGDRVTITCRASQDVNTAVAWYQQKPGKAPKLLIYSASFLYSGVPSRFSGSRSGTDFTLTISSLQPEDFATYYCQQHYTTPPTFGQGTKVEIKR
B18: Trastuzumab HCDR3 variant ARSGGHGVNGHWRSF (Fab, V domains shown)
VH: EVQLVESGGGLVQPGGSLRLSCAASGFNIKDTYIHWVRQAPGKGLEWVARIYPTNGYTRYADSVKGRFTISADTSKNTAYLQMNSLRAEDTAVYYCARSGGHGVNGHWRSFWGQGTLVTVSS
VL: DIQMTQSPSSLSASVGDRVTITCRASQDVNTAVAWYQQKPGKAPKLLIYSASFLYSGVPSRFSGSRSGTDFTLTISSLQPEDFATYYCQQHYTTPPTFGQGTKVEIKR
B19: Trastuzumab HCDR3 variant AYTGAPHGGYHYYAY (Fab, V domains shown)
VH: EVQLVESGGGLVQPGGSLRLSCAASGFNIKDTYIHWVRQAPGKGLEWVARIYPTNGYTRYADSVKGRFTISADTSKNTAYLQMNSLRAEDTAVYYCAYTGAPHGGYHYYAYWGQGTLVTVSS
VL: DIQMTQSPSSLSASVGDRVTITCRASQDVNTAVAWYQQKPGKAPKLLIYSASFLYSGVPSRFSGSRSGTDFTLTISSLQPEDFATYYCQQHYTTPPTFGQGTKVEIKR
B20: Trastuzumab HCDR3 variant ATWPHINTRIYAFDP (Fab, V domains shown)
VH: EVQLVESGGGLVQPGGSLRLSCAASGFNIKDTYIHWVRQAPGKGLEWVARIYPTNGYTRYADSVKGRFTISADTSKNTAYLQMNSLRAEDTAVYYCATWPHINTRIYAFDPWGQGTLVTVSS
VL: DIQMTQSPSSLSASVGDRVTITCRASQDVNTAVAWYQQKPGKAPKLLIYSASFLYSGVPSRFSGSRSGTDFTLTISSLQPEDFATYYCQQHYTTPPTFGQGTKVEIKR
B21: Trastuzumab HCDR3 variant TRYYGGYGYYFDY (Fab, V domains shown)
VH: EVQLVESGGGLVQPGGSLRLSCAASGFNIKDTYIHWVRQAPGKGLEWVARIYPTNGYTRYADSVKGRFTISADTSKNTAYLQMNSLRAEDTAVYYCTRYYGGYGYYFDYWGQGTLVTVSS
VL: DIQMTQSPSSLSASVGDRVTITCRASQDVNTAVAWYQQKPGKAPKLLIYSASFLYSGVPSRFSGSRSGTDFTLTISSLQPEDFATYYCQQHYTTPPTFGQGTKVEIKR
B22: Trastuzumab HCDR3 variant VRYPEVYGYYFDY (Fab, V domains shown)
VH: B21 VH with T97V, Y100P, G101E, G102V
VL: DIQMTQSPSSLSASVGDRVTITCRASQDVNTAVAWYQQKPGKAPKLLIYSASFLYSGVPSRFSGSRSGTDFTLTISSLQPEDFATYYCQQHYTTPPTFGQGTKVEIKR
B23: Multi-step trastuzumab HCDR3 variant ARSGGSGYYYYDY (SEQ ID NO: 524) (Fab, V domains shown)
VH: B21 VH with T97A, Y99S, Y100G, G102S, Y103G, G104Y, F107Y
VL: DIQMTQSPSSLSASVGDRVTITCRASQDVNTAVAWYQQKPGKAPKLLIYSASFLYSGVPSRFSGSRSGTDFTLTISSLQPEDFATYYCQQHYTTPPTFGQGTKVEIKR
B24: De novo trastuzumab HCDR2|3 variant IDPANGYT / ARVGGRGYYYYDY (Fab, V domains shown)
VH: B21 VH with Y52D, T54A, T97A, Y99V, Y100G, G102R, Y103G, G104Y, F107Y
VL: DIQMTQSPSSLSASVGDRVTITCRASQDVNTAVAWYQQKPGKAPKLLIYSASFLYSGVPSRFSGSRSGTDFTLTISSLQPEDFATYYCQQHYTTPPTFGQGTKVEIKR
notes: also called AI Design 7
B25: De novo trastuzumab HCDR2|3 variant IYPANGYT / ASSGGSSSYYYNY (Fab, V domains shown)
VH: B21 VH with T54A, T97A, R98S, Y99S, Y100G, G102S, Y103S, G104S, F107Y, D108N
VL: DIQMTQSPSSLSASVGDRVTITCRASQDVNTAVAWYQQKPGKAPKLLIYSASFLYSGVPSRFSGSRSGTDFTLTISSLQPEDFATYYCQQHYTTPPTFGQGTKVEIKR
B26: De novo trastuzumab HCDR2|3 variant IYPANGYT / ASSGGGYSYYYTY (Fab, V domains shown)
VH: B21 VH with T54A, T97A, R98S, Y99S, Y100G, G104S, F107Y, D108T
VL: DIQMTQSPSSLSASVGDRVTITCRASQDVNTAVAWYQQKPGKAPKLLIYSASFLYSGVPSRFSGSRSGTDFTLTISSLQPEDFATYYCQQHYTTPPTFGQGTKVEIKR
B27: De novo trastuzumab HCDR1|2|3 variant GFNIKDYY / IYPSRGYT / ARHGSEGRYTMDV (Fab, V domains shown)
VH: EVQLVESGGGLVQPGGSLRLSCAASGFNIKDYYIHWVRQAPGKGLEWVARIYPSRGYTRYADSVKGRFTISADTSKNTAYLQMNSLRAEDTAVYYCARHGSEGRYTMDVWGQGTLVTVSS
VL: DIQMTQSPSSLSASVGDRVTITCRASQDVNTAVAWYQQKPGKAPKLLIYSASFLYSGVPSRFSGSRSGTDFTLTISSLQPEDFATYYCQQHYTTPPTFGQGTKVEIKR
notes: also called AI Design 3
B28: De novo trastuzumab HCDR2|3 variant IYPANGYT / AREGGVGYYSFAY (Fab, V domains shown)
VH: B21 VH with T54A, T97A, Y99E, Y100G, G102V, Y103G, G104Y, Y106S, D108A
VL: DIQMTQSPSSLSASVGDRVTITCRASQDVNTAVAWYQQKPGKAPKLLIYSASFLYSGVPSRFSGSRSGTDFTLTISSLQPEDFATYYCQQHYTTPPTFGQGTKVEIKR
B29: De novo trastuzumab HCDR2|3 variant IDPADGYT / AREGGYGYYAMDY (Fab, V domains shown)
VH: B27 VH with Y32T, Y52D, S54A, R55D, H99E, S101G, E102Y, R104Y, T106A, V109Y
VL: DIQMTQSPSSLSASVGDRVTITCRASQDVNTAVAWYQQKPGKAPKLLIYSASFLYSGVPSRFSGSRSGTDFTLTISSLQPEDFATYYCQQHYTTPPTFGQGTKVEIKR
notes: also called AI Design 6
B30: De novo trastuzumab HCDR1|2|3 variant GFNISDYY / IYPSSGYT / ARDGGVGSYSMDV (Fab, V domains shown)
VH: B27 VH with K30S, R55S, H99D, S101G, E102V, R104S, T106S
VL: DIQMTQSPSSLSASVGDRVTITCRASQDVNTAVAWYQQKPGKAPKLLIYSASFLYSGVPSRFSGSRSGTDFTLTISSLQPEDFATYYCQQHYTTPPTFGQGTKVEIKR
notes: also called AI Design 2
B31: De novo trastuzumab HCDR2|3 variant IDPENGYT / ARVGGYGYYYYDY (Fab, V domains shown)
VH: B21 VH with Y52D, T54E, T97A, Y99V, Y100G, G102Y, Y103G, G104Y, F107Y
VL: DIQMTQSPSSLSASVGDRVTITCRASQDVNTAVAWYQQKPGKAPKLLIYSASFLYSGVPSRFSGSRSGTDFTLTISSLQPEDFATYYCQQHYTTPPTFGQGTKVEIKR
B32: De novo trastuzumab HCDR1|2|3 variant GFNIKDTW / IDPANGYT / ARVGGRGYYYYDY (Fab, V domains shown)
VH: B21 VH with Y33W, Y52D, T54A, T97A, Y99V, Y100G, G102R, Y103G, G104Y, F107Y
VL: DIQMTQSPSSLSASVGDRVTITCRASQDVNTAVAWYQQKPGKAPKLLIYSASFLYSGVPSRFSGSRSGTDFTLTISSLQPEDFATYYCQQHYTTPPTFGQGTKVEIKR
notes: also called AI Design 4
B33: De novo trastuzumab HCDR1|2|3 variant GFNFKDTY / IYPANGYT / ASDGGSYSYAFDY (Fab, V domains shown)
VH: B21 VH with I29F, T54A, T97A, R98S, Y99D, Y100G, G102S, G104S, Y106A
VL: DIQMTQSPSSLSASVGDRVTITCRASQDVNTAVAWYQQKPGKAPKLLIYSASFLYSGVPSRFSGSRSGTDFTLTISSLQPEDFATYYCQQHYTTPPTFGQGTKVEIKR
notes: also called AI Design 5

biological target: human epidermal growth factor receptor 2 (HER2) extracellular domain (human, UniProt P04626 23-629); experiment: SPR

Binder	Kd	log(KD (M))
B1	51.2 nM	-7.29 log(M)
B2	116 nM	-6.94 log(M)
B3	187 nM	-6.73 log(M)
B4	120 nM	-6.92 log(M)
B5	45.1 nM	-7.35 log(M)
B6	151 nM	-6.82 log(M)
B7	95 nM	-7.02 log(M)
B8	164 nM	-6.79 log(M)
B9	202 nM	-6.7 log(M)
B10	50.2 nM and 50.1 nM	-7.3 log(M)
B11	41.5 nM	-7.38 log(M)
B12	273 nM	-6.56 log(M)
B13	49.4 nM	-7.31 log(M)
B14	109 nM	-6.96 log(M)
B15	79.2 nM	-7.1 log(M)
B16	74.6 nM	-7.13 log(M)
B17	147 nM and 146 nM	-6.83 log(M)
B18	49.8 nM	-7.3 log(M)
B19	49.4 nM	-7.31 log(M)
B20	117 nM	-6.93 log(M)
B21	41.6 nM	-7.38 log(M)
B22	36.3 nM	-7.44 log(M)

biological target: human epidermal growth factor receptor 2 (HER2) extracellular domain (human, UniProt P04626 23-629); experiment: SPR, Fab format

Binder	Kd	log(KD (M))
B23	1830 nM	-5.74 log M
B24	134 nM	-6.87 log M
B25	554 nM	-6.26 log M
B26	476 nM	-6.32 log M
B27	192 nM	-6.72 log M
B28	213 nM	-6.67 log M
B29	160 nM	-6.8 log M
B30	1320 nM	-5.88 log M
B31	277 nM	-6.56 log M
B32	394 nM	-6.4 log M
B33	642 nM	-6.19 log M
